Laboratory results from patent US7345026.

Experiments:
[1] = target: HLA-A2.1 molecules on T2 (TAP-, HLA-A2.1+) cells (human); experiment: T2 cells, peptide binding by surface HLA-A2.1 (BB7.2) flow cytometry; ratio of concentrations reaching 20% of maximal binding
[2] = target: HLA-A2.1 molecules on T2 (TAP-, HLA-A2.1+) cells (human); experiment: T2 cells, stabilisation assay, BB7.2 flow cytometry at 0, 2, 4, 6, 8 h

RA (relative affinity) (ratio to HIV 1 rt.476 reference peptide) [1]: 2.2
DC50 (half-life of peptide-HLA-A2.1 complexes) [2]: > 8 h
Substance: Tyrosinase 368-376-N epitopic peptide
